B1: PhyB(1-908)-10aaLinker-mCherry-Kras4BCT (other)
chain: MVSGVGGSGGGRGGGRGGEEEPSSSHTPNNRRGGEQAQSSGTKSLRPRSNTESMSKAIQQYTVDARLHAVFEQSGESGKSFDYSQSLKTTTYGSSVPEQQITAYLSRIQRGGYIQPFGCMIAVDESSFRIIGYSENAREMLGIMPQSVPTLEKPEILAMGTDVRSLFTSSSSILLERAFVAREITLLNPVWIHSKNTGKPFYAILHRIDVGVVIDLEPARTEDPALSIAGAVQSQKLAVRAISQLQALPGGDIKLLCDTVVESVRDLTGYDRVMVYKFHEDEHGEVVAESKRDDLEPYIGLHYPATDIPQASRFLFKQNRVRMIVDCNATPVLVVQDDRLTQSMCLVGSTLRAPHGCHSQYMANMGSIASLAMAVIINGNEDDGSNVASGRSSMRLWGLVVCHHTSSRCIPFPLRYACEFLMQAFGLQLNMELQLALQMSEKRVLRTQTLLCDMLLRDSPAGIVTQSPSIMDLVKCDGAAFLYHGKYYPLGVAPSEVQIKDVVEWLLANHADSTGLSTDSLGDAGYPGAAALGDAVCGMAVAYITKRDFLFWFRSHTAKEIKWGGAKHHPEDKDDGQRMHPRSSFQAFLEVVKSRSQPWETAEMDAIHSLQLILRDSFKESEAAMNSKVVDGVVQPCRDMAGEQGIDELGAVAREMVRLIETATVPIFAVDAGGCINGWNAKIAELTGLSVEEAMGKSLVSDLIYKENEATVNKLLSRALRGDEEKNVEVKLKTFSPELQGKAVFVVVNACSSKDYLNNIVGVCFVGQDVTSQKIVMDKFINIQGDYKAIVHSPNPLIPPIFAADENTCCLEWNMAMEKLTGWSRSEVIGKMIVGEVFGSCCMLKGPDALTKFMIVLHNAIGGQDTDKFPFPFFDRNGKFVQALLTANKRVSLEGKVIGAFCFLQIPSDSAGSAGSAGSKTKCVIM
modifications: phycocyanobilin (PCB) chromophore covalently bound; C-terminal CaaX prenylation sequence
notes: Expressed in NIH3T3 cells, localized to the plasma membrane; also called pAL149; PhyB908; not shown: mCherry fluorescent protein, amplified from a vector

How the values were obtained:
[1] = target: T1, PIF6APB-mYFP-20aaLinker-Rac1(Q61L)ΔCT (Arabidopsis thaliana, UniProt P63000 1-188); assay: global light-activated membrane translocation in NIH3T3 cells, red light
T1 construct: also called pAL105; Rac1(Q61L, no caax); not shown: mYFP: EYFP with monomerizing A206K mutation

[2] = target: B1; assay: YFP membrane translocation in NIH3T3 cells, confocal microscopy
[3] = target: T2, PhyB(1-650)-10aaLinker-mCherry-Kras4BCT (Arabidopsis thaliana, UniProt P14713 1-650, phycocyanobilin (PCB) chromophore covalently bound; C-terminal CaaX prenylation sequence); assay: as above
T2 construct: Expressed in NIH3T3 cells at the plasma membrane; also called pAL117; PhyB-NT; not shown: mCherry fluorescent protein, amplified from a vector
T2 sequence: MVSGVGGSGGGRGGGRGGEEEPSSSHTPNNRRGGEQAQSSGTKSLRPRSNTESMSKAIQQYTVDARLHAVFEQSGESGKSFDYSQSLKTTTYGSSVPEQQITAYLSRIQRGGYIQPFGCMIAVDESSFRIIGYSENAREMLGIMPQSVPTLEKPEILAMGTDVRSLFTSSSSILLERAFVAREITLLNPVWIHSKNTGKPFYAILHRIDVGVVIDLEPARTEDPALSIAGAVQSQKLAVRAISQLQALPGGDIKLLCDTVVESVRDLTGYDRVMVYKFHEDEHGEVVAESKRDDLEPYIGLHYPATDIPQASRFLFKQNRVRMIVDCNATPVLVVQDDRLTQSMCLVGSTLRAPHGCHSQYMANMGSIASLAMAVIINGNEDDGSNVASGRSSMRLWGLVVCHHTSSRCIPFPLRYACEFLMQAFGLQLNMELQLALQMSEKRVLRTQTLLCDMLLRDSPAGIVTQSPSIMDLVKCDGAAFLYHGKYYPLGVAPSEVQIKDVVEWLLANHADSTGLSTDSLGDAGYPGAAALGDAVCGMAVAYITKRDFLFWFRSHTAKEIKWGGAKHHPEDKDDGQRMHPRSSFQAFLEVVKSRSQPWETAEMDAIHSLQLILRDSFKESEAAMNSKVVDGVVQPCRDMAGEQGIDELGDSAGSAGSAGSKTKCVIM

[4] = target: T3, PhyB(1-450)-10aaLinker-mCherry-Kras4BCT (Arabidopsis thaliana, UniProt P14713 1-450, phycocyanobilin (PCB) chromophore covalently bound; C-terminal CaaX prenylation sequence); assay: as above
T3 construct: Expressed in NIH3T3 cells at the plasma membrane; also called pAL161; PhyB-CBD; not shown: mCherry fluorescent protein, amplified from a vector
T3 sequence: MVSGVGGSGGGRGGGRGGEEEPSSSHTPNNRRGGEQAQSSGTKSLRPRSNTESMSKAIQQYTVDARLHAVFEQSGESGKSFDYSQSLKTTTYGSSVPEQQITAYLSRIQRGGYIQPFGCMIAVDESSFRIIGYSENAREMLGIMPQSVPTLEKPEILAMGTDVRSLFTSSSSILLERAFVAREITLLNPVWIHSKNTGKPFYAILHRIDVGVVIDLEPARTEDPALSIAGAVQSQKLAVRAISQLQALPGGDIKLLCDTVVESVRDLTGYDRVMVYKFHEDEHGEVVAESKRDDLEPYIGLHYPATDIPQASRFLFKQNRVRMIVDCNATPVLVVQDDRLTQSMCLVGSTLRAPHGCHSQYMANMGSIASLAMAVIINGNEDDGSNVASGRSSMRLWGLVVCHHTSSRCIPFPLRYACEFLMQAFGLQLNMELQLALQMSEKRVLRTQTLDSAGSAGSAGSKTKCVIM

[5] = target: T4, PhyB(1-650)-Gal4DD-10aaLinker-mCherry-Kras4BCT (Arabidopsis thaliana; Saccharomyces …, UniProt P04386 50-106, phycocyanobilin (PCB) chromophore covalently bound; C-terminal CaaX prenylation sequence); assay: as above
T4 construct: also called pAL148; not shown: mCherry fluorescent protein, amplified from a vector

[6] = target: T5, PhyBFL-10aaLinker-mCherry-Kras4BCT (Arabidopsis thaliana, UniProt P14713 1-1172, phycocyanobilin (PCB) chromophore covalently bound; C-terminal CaaX prenylation sequence); assay: as above
T5 construct: also called pAL162; PhyB full length; not shown: mCherry fluorescent protein, amplified from a vector
T5 sequence: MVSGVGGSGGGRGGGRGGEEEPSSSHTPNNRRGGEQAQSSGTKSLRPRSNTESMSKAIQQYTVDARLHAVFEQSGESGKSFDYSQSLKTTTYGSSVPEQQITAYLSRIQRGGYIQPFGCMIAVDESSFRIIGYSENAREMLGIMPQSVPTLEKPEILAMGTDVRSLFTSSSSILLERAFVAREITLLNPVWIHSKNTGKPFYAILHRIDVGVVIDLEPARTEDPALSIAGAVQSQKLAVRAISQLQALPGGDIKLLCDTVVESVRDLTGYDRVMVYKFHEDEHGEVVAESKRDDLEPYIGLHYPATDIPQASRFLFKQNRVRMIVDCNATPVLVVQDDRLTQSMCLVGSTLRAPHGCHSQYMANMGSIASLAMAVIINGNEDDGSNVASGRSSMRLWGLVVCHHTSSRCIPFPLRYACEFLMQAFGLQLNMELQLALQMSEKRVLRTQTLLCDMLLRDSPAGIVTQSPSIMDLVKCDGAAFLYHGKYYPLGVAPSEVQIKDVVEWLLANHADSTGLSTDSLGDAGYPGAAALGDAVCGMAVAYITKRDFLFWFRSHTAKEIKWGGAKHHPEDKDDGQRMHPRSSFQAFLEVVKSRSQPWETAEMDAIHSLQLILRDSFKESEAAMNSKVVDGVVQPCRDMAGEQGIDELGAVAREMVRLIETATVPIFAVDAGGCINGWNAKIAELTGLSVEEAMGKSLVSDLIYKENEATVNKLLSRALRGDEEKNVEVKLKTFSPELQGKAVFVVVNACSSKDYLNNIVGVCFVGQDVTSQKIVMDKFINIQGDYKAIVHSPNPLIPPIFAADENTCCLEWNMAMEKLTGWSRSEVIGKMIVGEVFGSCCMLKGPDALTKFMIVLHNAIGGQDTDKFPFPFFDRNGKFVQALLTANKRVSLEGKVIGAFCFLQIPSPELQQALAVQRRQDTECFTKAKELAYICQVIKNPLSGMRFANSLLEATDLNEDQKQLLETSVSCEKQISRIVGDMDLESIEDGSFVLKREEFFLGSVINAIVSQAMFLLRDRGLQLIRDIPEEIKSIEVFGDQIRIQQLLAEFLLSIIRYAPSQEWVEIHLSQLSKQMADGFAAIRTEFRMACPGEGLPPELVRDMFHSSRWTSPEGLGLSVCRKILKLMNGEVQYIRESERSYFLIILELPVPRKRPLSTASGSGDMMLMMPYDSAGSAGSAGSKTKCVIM

Binder	binding result [1]	binding result [2]	binding result [3]	binding result [4]	binding result [5]	binding result [6]
B1	binds	–	–	–	–	–
PIF3APB-mYFP (other, also called pAL100; PIF3-100NT; not shown: mYFP: EYFP with monomerizing A206K mutation) MPLFELFRLTKAKLESAQDRNPSPPVDEVVELVWENGQISTQSQSSRSRNIPPPQANSSRAREIGNGSKTTMVDEIPMSVPSLMTGLSQDDDFVPWLNHH	–	no binding	no binding	no binding	no binding	no binding

From patent US20110207116A1 (University of California, published 2011)
